For this assay, the target named is monoclonal antibody mAB 198. Kind of assay: peptide microarray, fluorescence, cyclic peptide.

Where no end group is shown, it is not given here.

In the case of LRFNPAD (also: cyclic peptide, mode of cyclisation not given here) [LRFNPAD, cyclic mimotope], the relative signal [%] amounted to 8.6%.

As to SLRWNPADYHG (also: cyclic peptide, mode of cyclisation not given here), the relative signal [%] was 8.7%.

For the molecule GGSLRLNPADY (also: cyclic peptide, mode of cyclisation not given here), the relative signal [%] came to 8.5%.

In turn, RLRTNPADY (also: cyclic peptide, ring type and places not given here) registered a relative signal [%] of 8.6%.

The molecule NPADYGN (also: cyclic peptide, mode of cyclisation not given here) [NPADYGN, cyclic mimotope] displayed a relative signal [%] of 8.7%.

In turn, GSLRWNPADYT (also: cyclic peptide, mode of cyclisation not given here) yielded a relative signal [%] of 8.7%.

The values are drawn from US20230381328A1, “COMPOUND FOR THE PREVENTION OR TREATMENT OF MYASTHENIA GRAVIS” (ABLEVIA BIOTECH GMBH, priority 2020, published 2023).
